Our source for the kcat and kcat/Km values is publication PMC12152739.

What all share (format): biochemical
Substrate in series [1]: CC(C)(O/N=C(\C(=O)N[C@@H]1C(=O)N2C(C(=O)[O-])=C(C[N+]3(CCNC(=O)c4ccc(O)c(O)c4Cl)CCCC3)CS[C@H]12)c1csc(N)n1)C(=O)O
Description: Steady-state hydrolysis kinetics and UV difference spectra with purified NDM-1. The conditions noted are these: other: substrate hydrolysis by NDM-1, 30 °C, pH 7.5.

Substrate in series [2]: CC(C)(O/N=C(\C(=O)N[C@@H]1C(=O)N2C(C(=O)[O-])=C(C[n+]3ccccc3)CS[C@H]12)c1csc(N)n1)C(=O)O
Described as above. The conditions noted are these: other: substrate hydrolysis by NDM-1, 30 °C, pH 7.5.

Substrate in series [3]: CC(C)(O/N=C(\C(=O)N[C@@H]1C(=O)N2C(C(=O)[O-])=C(C[N+]3(CCNC(=O)c4ccc(O)c(O)c4Cl)CCCC3)CS[C@H]12)c1csc(N)n1)C(=O)O
Description: Steady-state hydrolysis kinetics and UV difference spectra with purified IMP-1. Particulars: other: FDC hydrolysis by IMP-1, 30 °C, pH 7.5.

B1: NDM-1 (Klebsiella pneumoniae) (protein)
chain: METGDQRFGDLVFRQLAPNVWQHTSYLDMPGFGAVASNGLIVRDGGRVLVVDTAWTDDQTAQILNWIKQEINLPVALAVVTHAHQDKMGGMDALHAAGIATYANALSNQLAPQEGMVAAQHSLTFAANGWVEPATAPNFGPLKVFYPGPGHTSDNITVGIDGTDIAFGGCLIKDSKAKSLGNLGDADTEHYAASARAFGAAFPKASMIVMSHSAPDSRAAITHTARMADKLR
What is called kcat is the number of substrate molecules converted per active site and unit of time at saturation. Broadly, the kcat/Km is the second-order rate constant that governs catalysis at low substrate concentration. B1: the kcat is 84 ± 11 s⁻¹ in series [1] and 187 ± 13 s⁻¹ in series [2]. Besides, the kcat/Km in series [2] was 4.16e+06 M⁻¹ s⁻¹.

B2: IMP-1 (Serratia marcescens) (protein)
chain: TAAESLPDLKIEKLDEGVYVHTSFEEVNGWGVVPKHGLVVLVNAEAYLIDTPFTAKDTEKLVTWFVERGYKIKGSISSHFHSDSTGGIEWLNSRSIPTYASELTNELLKKDGKVQATNSFSGVNYWLVKNKIEVFYPGPGHTPDNVVVWLPERKILFGGCFIKPYGLGNLGDANIEAWPKSAKLLKSKYGKAKLVVPSHSEVGDASLLKLTLEQAVKGLNESKKPSKPSN
As to B2, in series [3], the turnover number (kcat) was 1.25 ± 0.23 s⁻¹.
